Article PMC3627576 (Nucleic Acids Research, 2013)

T1: Pab-Pol D (Pyrococcus abyssi, UniProt Q9V2F4)
T1 sequence (Q9V2F4 1-954): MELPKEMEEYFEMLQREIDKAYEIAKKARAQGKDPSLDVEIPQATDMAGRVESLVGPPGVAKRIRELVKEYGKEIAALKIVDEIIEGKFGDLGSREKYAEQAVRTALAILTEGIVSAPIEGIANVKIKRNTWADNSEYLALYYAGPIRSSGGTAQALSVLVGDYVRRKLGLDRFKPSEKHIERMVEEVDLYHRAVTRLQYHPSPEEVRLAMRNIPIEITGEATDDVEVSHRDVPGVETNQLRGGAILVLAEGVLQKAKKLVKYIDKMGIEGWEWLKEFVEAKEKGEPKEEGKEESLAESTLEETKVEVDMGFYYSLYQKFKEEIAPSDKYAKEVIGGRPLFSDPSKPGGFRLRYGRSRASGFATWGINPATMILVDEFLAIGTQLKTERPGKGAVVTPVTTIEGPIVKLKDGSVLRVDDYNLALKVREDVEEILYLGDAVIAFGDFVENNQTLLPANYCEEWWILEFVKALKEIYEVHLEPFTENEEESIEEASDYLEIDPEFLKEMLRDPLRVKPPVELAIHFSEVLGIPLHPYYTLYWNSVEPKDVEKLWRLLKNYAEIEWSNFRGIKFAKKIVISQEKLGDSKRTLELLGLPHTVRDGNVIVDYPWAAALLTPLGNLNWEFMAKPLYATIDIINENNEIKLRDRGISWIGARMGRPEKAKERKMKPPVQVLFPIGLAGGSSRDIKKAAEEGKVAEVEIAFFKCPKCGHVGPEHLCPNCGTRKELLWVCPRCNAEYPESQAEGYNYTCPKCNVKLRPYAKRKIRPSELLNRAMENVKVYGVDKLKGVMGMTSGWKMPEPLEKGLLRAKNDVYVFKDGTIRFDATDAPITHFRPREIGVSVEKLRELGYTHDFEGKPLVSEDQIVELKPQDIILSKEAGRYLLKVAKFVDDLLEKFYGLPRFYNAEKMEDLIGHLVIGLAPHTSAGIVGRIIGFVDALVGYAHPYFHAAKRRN
T1 sequence (Q9V2F4 1140-1455): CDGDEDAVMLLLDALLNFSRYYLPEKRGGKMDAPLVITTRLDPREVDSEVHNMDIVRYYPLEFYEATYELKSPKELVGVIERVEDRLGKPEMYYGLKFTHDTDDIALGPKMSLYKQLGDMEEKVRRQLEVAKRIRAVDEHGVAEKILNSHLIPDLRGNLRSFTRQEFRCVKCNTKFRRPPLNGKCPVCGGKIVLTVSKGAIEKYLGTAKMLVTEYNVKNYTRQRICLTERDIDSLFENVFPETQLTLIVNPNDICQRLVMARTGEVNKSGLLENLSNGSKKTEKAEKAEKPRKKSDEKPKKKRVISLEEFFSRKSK
T1 sequence (Q9V2F3 1-619 partner): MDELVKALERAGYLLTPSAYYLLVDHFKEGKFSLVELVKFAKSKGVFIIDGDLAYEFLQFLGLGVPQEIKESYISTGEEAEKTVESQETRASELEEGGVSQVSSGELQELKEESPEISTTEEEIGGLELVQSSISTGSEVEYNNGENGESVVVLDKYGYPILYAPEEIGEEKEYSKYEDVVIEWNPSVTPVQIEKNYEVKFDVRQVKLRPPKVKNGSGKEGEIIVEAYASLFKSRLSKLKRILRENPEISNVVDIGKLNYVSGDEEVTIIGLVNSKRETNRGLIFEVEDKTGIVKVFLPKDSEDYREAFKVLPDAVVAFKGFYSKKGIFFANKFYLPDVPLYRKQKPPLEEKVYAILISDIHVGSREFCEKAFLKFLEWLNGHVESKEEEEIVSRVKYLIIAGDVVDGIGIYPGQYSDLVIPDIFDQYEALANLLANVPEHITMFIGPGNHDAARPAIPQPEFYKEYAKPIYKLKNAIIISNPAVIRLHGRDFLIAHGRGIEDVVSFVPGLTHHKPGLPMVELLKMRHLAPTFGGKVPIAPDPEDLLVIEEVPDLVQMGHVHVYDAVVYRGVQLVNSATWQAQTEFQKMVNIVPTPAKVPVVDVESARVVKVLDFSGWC


Key:
Pab-Pol D = molecular target: T1, Pab-Pol D; assay: primer extension with a single dNTP, denaturing gel; format: biochemical; conditions: exo+ enzyme; template U at +1; otherwise same
[1] = molecular target: Pfu-Pol D (family-D DNA polymerase, DP1 small + DP2 large subunits) (Pyrococcus furiosus, UniProt P81409;P81412 1-1263;1-613); assay: fluorescence anisotropy
Sequence of Pfu-Pol D (family-D DNA polymerase, DP1 small + DP2 large subunits) (P81409 whole entry, chain 1 of 2): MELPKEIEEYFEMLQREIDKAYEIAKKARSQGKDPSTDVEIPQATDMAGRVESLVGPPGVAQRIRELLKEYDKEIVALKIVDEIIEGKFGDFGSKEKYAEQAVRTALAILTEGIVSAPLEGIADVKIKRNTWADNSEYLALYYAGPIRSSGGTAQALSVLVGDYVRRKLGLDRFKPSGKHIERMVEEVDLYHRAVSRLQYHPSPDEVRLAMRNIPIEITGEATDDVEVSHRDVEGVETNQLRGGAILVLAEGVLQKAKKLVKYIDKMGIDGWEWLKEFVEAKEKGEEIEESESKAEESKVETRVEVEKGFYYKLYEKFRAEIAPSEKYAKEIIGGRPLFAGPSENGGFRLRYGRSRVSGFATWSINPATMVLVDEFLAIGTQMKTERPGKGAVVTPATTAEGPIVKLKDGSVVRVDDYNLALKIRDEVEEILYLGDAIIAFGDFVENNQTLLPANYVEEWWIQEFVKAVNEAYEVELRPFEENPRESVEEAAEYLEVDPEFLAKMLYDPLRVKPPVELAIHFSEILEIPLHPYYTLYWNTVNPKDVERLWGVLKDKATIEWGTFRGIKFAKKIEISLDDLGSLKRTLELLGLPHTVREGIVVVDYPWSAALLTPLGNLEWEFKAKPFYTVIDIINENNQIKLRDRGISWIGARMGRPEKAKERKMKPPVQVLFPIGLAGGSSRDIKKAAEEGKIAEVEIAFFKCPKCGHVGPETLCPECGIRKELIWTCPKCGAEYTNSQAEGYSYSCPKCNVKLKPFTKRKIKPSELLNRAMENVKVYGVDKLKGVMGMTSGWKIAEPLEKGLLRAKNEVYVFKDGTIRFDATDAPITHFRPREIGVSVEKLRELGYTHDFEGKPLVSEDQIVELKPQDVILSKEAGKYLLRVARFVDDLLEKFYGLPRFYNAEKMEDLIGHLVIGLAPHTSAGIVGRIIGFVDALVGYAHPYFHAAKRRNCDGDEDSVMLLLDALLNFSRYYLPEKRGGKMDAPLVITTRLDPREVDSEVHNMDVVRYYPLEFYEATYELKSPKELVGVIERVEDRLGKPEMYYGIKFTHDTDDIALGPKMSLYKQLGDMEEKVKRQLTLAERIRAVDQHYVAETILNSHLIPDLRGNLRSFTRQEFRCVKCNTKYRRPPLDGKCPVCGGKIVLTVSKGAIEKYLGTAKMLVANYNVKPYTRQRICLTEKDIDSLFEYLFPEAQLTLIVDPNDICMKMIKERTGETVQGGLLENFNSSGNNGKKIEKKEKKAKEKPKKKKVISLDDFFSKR
Sequence of Pfu-Pol D (family-D DNA polymerase, DP1 small + DP2 large subunits) (P81412 whole entry, chain 2 of 2): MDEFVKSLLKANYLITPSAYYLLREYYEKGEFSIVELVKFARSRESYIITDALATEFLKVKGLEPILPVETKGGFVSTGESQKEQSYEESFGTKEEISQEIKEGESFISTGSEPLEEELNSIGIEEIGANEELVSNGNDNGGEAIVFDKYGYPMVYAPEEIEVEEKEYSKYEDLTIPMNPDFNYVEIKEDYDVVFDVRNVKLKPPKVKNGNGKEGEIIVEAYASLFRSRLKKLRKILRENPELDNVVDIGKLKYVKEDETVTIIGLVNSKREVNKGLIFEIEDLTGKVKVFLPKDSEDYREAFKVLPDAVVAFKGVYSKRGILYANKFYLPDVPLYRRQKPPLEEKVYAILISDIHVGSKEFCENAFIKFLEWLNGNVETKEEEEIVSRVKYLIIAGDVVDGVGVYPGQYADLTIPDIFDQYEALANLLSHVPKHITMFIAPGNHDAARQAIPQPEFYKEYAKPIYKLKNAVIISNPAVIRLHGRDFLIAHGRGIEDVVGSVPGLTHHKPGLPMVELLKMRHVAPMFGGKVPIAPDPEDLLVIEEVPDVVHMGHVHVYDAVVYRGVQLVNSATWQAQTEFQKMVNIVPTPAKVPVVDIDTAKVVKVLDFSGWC

| Molecule | primer extension with a single dNTP, denaturing gel (Pab-Pol D) | Kd [1] |
| --- | --- | --- |
| Nc1ncnc2c1ncn2[C@H]1C[C@H](O)[C@@H](COP(=O)(O)OP(=O)(O)OP(=O)(O)O)O1 [dATP] | Pab-Pol D exo^+ only incorporated adenine opposite uracil | – |
| TTTCTGGTTCCAGCTGGACCATTCGCCTATAGGACCTATT (ssDNA) [single strand, X=T] | – | 6 ± 1.6 nM |
| TTTCTGGTUCCAGCTGGACCATTCGCCTATAGGACCTATT (ssDNA, deoxyuridine at position 9) [single strand, X=U] | – | 3.4 ± 0.3 nM |
| primer-template -1, X=T (dsDNA) DNA 1: TTTCTGGTTCCAGCTGGACCATTCGCCTATAGGACCTATT DNA 2: AATAGGTCCTATAGGCGAATGGTCCAGCTGGAA | – | 9.3 ± 0.6 nM |
| primer-template -1, X=U (dsDNA, deoxyuridine at template position 9) DNA 1: TTTCTGGTUCCAGCTGGACCATTCGCCTATAGGACCTATT DNA 2: AATAGGTCCTATAGGCGAATGGTCCAGCTGGAA | – | 5.2 ± 1.3 nM |
| primer-template +1, X=T (dsDNA) DNA 1: TTTCTGGTTCCAGCTGGACCATTCGCCTATAGGACCTATT DNA 2: AATAGGTCCTATAGGCGAATGGTCCAGCTGG | – | 9.1 ± 1.5 nM |
| primer-template +1, X=U (dsDNA, deoxyuridine at template position 9) DNA 1: TTTCTGGTUCCAGCTGGACCATTCGCCTATAGGACCTATT DNA 2: AATAGGTCCTATAGGCGAATGGTCCAGCTGG | – | 5.8 ± 0.4 nM |
